From IntAct's records for PubMed 30126976

B1: Ecotropic viral integration site 5 protein homolog (Homo sapiens), O60447 (parent)
chain: MVTNKMTAAFRNPSGKQVATDKVAEKLSSTLSWVKNTVSHTVSQMASQVASPSTSLHTTSSSTTLSTPALSPSSPSQLSPDDLELLAKLEEQNRLLETDSKSLRSVNGSRRNSGSSLVSSSSASSNLSHLEEDSWILWGRIVNEWEDVRKKKEKQVKELVHKGIPHHFRAIVWQLLCSAQSMPIKDQYSELLKMTSPCEKLIRRDIARTYPEHNFFKEKDSLGQEVLFNVMKAYSLVDREVGYCQGSAFIVGLLLMQMPEEEAFCVFVKLMQDYRLRELFKPSMAELGLCMYQFECMIQEHLPELFVHFQSQSFHTSMYASSWFLTIFLTTFPLPIATRIFDIFMSEGLEIVFRVGLALLQMNQAELMQLDMEGMLQHFQKVIPHQFDGVPDKLIQAAYQVKYNSKKMKKLEKEYTTIKTKEMEEQVEIKRLRTENRLLKQRIETLEKHKCSSNYNEDFVLQLEKELVQARLSEAESQCALKEMQDKVLDIEKRNNSLPDENNIARLQEELIAVKLREAEAIMGLKELRQQVKDLEEHWQRHLARTTGRWKDPPKKNAMNELQDELMTIRLREAETQAEIREIKQRMMEMETQNQINSNHLRRAEQEVISLQEKVQYLSAQNKGLLTQLSEAKRKQAEIECKNKEEVMAVRLREADSIAAVAELRQHIAELEIQKEEGKLQGQLNKSDSNQYIGELKDQIAELNHELRCLKGQRGFSGQPPFDGIHIVNHLIGDDESFHSSDEDFIDNSLQETGVGFPLHGKSGSMSLDPAVADGSESETEDSVLETRESNQVVQKERPPRRRESYSTTV
B2: Prostaglandin D2 receptor (Homo sapiens), Q13258 (parent)
chain: MKSPFYRCQNTTSVEKGNSAVMGGVLFSTGLLGNLLALGLLARSGLGWCSRRPLRPLPSVFYMLVCGLTVTDLLGKCLLSPVVLAAYAQNRSLRVLAPALDNSLCQAFAFFMSFFGLSSTLQLLAMALECWLSLGHPFFYRRHITLRLGALVAPVVSAFSLAFCALPFMGFGKFVQYCPGTWCFIQMVHEEGSLSVLGYSVLYSSLMALLVLATVLCNLGAMRNLYAMHRRLQRHPRSCTRDCAEPRADGREASPQPLEELDHLLLLALMTVLFTMCSLPVIYRAYYGAFKDVKEKNRTSEEAEDLRALRFLSVISIVDPWIFIIFRSPVFRIFFHKIFIRPLRYRSRCSNSTNMESSL
B3: Neuroepithelial cell-transforming gene 1 protein (Homo sapiens), Q7Z628 (parent)
chain: MEPELAAQKQPRPRRRSRRASGLSTEGATGPSADTSGSELDGRCSLRRGSSFTFLTPGPNWDFTLKRKRREKDDDVVSLSSLDLKEPSNKRVRPLARVTSLANLISPVRNGAVRRFGQTIQSFTLRGDHRSPASAQKFSSRSTVPTPAKRRSSALWSEMLDITMKESLTTREIRRQEAIYEMSRGEQDLIEDLKLARKAYHDPMLKLSIMSEEELTHIFGDLDSYIPLHEDLLTRIGEATKPDGTVEQIGHILVSWLPRLNAYRGYCSNQLAAKALLDQKKQDPRVQDFLQRCLESPFSRKLDLWSFLDIPRSRLVKYPLLLKEILKHTPKEHPDVQLLEDAILIIQGVLSDINLKKGESECQYYIDKLEYLDEKQRDPRIEASKVLLCHGELRSKSGHKLYIFLFQDILVLTRPVTRNERHSYQVYRQPIPVQELVLEDLQDGDVRMGGSFRGAFSNSEKAKNIFRIRFHDPSPAQSHTLQANDVFHKQQWFNCIRAAIAPFQSAGSPPELQGLPELHEECEGNHPSARKLTAQRRASTVSSVTQVEVDENAYRCGSGMQMAEDSKSLKTHQTQPGIRRARDKALSGGKRKETLV
B4: Monocarboxylate transporter 4 (Homo sapiens), O15427 (parent)
chain: MGGAVVDEGPTGVKAPDGGWGWAVLFGCFVITGFSYAFPKAVSVFFKELIQEFGIGYSDTAWISSILLAMLYGTGPLCSVCVNRFGCRPVMLVGGLFASLGMVAASFCRSIIQVYLTTGVITGLGLALNFQPSLIMLNRYFSKRRPMANGLAAAGSPVFLCALSPLGQLLQDRYGWRGGFLILGGLLLNCCVCAALMRPLVVTAQPGSGPPRPSRRLLDLSVFRDRGFVLYAVAASVMVLGLFVPPVFVVSYAKDLGVPDTKAAFLLTILGFIDIFARPAAGFVAGLGKVRPYSVYLFSFSMFFNGLADLAGSTAGDYGGLVVFCIFFGISYGMVGALQFEVLMAIVGTHKFSSAIGLVLLMEAVAVLVGPPSGGKLLDATHVYMYVFILAGAEVLTSSLILLLGNFFCIRKKPKEPQPEVAAAEEEKLHKPPADSGVDLREVEHFLKAEPEKNGEVVHTPETSV
B5: Cysteinyl leukotriene receptor 2 (Homo sapiens), Q9NS75 (parent)
chain: MERKFMSLQPSISVSEMEPNGTFSNNNSRNCTIENFKREFFPIVYLIIFFWGVLGNGLSIYVFLQPYKKSTSVNVFMLNLAISDLLFISTLPFRADYYLRGSNWIFGDLACRIMSYSLYVNMYSSIYFLTVLSVVRFLAMVHPFRLLHVTSIRSAWILCGIIWILIMASSIMLLDSGSEQNGSVTSCLELNLYKIAKLQTMNYIALVVGCLLPFFTLSICYLLIIRVLLKVEVPESGLRVSHRKALTTIIITLIIFFLCFLPYHTLRTVHLTTWKVGLCKDRLHKALVITLALAAANACFNPLLYYFAGENFKDRLKSALRKGHPQKAKTKCVFPVSVWLRKETRV
B6: Rho guanine nucleotide exchange factor 16 (Homo sapiens), Q5VV41 (parent)
chain: MAQRHSDSSLEEKLLGHRFHSELRLDAGGNPASGLPMVRGSPRVRDDAAFQPQVPAPPQPRPPGHEEPWPIVLSTESPAALKLGTQQLIPKSLAVASKAKTPARHQSFGAAVLSREAARRDPKLLPAPSFSLDDMDVDKDPGGMLRRNLRNQSYRAAMKGLGKPGGQGDAIQLSPKLQALAEEPSQPHTRSPAKNKKTLGRKRGHKGSFKDDPQLYQEIQERGLNTSQESDDDILDESSSPEGTQKVDATIVVKSYRPAQVTWSQLPEVVELGILDQLSTEERKRQEAMFEILTSEFSYQHSLSILVEEFLQSKELRATVTQMEHHHLFSNILDVLGASQRFFEDLEQRHKAQVLVEDISDILEEHAEKHFHPYIAYCSNEVYQQRTLQKLISSNAAFREALREIERRPACGGLPMLSFLILPMQRVTRLPLLMDTLCLKTQGHSERYKAASRALKAISKLVRQCNEGAHRMERMEQMYTLHTQLDFSKVKSLPLISASRWLLKRGELFLVEETGLFRKIASRPTCYLFLFNDVLVVTKKKSEESYMVQDYAQMNHIQVEKIEPSELPLPGGGNRSSSVPHPFQVTLLRNSEGRQEQLLLSSDSASDRARWIVALTHSERQWQGLSSKGDLPQVEITKAFFAKQADEVTLQQADVVLVLQQEDGWLYGERLRDGETGWFPEDFARFITSRVAVEGNVRRMERLRVETDV

Variants of: B1
Conditions: with dlg1_human DLG1, Q12959
Target sequence in this assay (Q12959 whole entry, looked up): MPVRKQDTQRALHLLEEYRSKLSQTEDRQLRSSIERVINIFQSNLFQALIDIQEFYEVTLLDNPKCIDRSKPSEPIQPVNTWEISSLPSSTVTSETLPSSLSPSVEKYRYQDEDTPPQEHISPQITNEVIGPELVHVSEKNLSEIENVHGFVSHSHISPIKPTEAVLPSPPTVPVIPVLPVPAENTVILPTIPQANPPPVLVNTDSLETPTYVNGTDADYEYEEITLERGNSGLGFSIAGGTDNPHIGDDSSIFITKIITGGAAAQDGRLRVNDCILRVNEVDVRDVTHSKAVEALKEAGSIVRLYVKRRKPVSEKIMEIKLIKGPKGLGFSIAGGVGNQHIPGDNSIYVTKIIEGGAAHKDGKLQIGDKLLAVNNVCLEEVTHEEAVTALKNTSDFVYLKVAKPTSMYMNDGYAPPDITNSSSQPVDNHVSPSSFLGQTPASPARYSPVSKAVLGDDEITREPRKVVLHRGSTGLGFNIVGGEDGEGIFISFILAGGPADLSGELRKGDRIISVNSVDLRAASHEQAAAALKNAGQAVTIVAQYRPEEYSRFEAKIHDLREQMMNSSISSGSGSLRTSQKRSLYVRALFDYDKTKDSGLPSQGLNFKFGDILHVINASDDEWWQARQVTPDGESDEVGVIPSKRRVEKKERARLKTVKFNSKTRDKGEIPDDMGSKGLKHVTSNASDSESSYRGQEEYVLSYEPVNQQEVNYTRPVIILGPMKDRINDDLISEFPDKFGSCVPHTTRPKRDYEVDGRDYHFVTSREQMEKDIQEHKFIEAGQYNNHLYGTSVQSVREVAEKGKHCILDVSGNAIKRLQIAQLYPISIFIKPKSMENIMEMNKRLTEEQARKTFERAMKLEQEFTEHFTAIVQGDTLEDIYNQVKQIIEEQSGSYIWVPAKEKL

| Variant | effect of a mutation on the interaction |
| --- | --- |
| S805E | decreasing interaction strength |

Variants of: B2
Conditions: with scrib_human SCRIB
Target sequence in this assay (Q14160 whole entry): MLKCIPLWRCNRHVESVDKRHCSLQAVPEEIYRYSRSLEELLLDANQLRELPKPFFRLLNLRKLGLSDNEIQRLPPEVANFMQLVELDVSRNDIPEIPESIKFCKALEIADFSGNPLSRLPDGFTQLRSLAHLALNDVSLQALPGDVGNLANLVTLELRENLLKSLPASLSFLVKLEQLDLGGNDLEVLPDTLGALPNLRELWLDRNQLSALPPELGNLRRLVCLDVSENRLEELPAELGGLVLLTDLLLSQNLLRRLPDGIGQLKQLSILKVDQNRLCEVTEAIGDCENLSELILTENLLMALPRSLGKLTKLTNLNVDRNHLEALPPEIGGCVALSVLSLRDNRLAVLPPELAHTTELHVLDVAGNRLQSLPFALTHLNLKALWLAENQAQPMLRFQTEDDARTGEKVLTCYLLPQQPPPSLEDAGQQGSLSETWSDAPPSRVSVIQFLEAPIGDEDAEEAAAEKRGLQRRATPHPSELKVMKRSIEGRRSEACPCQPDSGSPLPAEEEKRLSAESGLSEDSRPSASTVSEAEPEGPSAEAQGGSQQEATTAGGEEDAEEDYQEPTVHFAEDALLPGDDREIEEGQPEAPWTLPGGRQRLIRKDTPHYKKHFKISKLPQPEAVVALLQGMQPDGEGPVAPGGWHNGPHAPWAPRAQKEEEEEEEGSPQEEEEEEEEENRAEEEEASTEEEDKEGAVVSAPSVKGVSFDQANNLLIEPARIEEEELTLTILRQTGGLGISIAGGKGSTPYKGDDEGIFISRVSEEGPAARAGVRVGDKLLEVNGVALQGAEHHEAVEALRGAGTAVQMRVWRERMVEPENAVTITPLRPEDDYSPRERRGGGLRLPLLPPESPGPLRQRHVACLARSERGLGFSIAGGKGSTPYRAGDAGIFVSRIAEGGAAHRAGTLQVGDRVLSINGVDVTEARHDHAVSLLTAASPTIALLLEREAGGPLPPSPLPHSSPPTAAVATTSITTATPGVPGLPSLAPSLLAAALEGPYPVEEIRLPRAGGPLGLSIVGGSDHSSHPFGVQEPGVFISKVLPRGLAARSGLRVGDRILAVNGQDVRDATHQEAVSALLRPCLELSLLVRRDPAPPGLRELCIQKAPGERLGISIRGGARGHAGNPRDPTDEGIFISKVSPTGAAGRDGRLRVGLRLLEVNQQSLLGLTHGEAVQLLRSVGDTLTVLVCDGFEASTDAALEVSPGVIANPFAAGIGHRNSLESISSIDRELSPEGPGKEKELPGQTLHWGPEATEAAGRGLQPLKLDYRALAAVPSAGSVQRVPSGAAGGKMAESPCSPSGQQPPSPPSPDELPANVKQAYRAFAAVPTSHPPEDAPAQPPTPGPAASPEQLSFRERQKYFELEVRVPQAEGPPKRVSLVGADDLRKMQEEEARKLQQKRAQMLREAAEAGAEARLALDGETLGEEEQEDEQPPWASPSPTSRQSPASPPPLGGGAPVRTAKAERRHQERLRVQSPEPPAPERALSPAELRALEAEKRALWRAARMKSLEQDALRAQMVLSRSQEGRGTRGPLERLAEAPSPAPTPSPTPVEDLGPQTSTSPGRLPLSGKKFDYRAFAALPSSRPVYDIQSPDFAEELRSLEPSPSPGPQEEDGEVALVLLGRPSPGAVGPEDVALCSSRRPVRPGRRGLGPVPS

| Variant | effect of a mutation on the interaction |
| --- | --- |
| S358E | causing an interaction |

Variants of: B3
Conditions: with dlg1_human DLG1, Q12959
Target sequence in this assay (Q12959 whole entry, looked up): as the sequence (Q12959 whole entry, looked up) above

| Variant | effect of a mutation on the interaction |
| --- | --- |
| T594E | disrupting interaction strength |

Variants of: B4
Conditions: with scrib_human SCRIB
Target sequence in this assay (Q14160 whole entry): as the sequence (Q14160 whole entry) above

| Variant | effect of a mutation on the interaction |
| --- | --- |
| S464E | with no effect |

Variants of: B5
Conditions: with scrib_human SCRIB
Target sequence in this assay (Q14160 whole entry): as above

| Variant | effect of a mutation on the interaction |
| --- | --- |
| T344E | disrupting interaction strength |

Variants of: B5
Conditions: with dlg1_human DLG1, Q12959
Target sequence in this assay (Q12959 whole entry, looked up): as the sequence (Q12959 whole entry, looked up) above

| Variant | effect of a mutation on the interaction |
| --- | --- |
| T344E | disrupting interaction strength |

Variants of: B6
Conditions: with scrib_human SCRIB
Target sequence in this assay (Q14160 whole entry): as the sequence (Q14160 whole entry) above

| Variant | effect of a mutation on the interaction |
| --- | --- |
| T707E | disrupting interaction strength |

Variants of: B6
Conditions: with dlg1_human DLG1, Q12959
Target sequence in this assay (Q12959 whole entry, looked up): as the sequence (Q12959 whole entry, looked up) above

| Variant | effect of a mutation on the interaction |
| --- | --- |
| T707E | disrupting interaction strength |
